Key:
[1] = target: T1, K48-linked diUb (made from UbD77 and UbK48C) (UniProt P0CG47 1-76; P0CG47 1-76, UbD77 | UbK48C, K48-linked to the other Ub (isopeptide bond between K48 and G76) | K48-linked to the other Ub (isopeptide bond between K48 and G76)); assay: NMR titration; 15N-labelled Josephin (C14A) 0.05 mM in 20 mM sodium phosphate pH 6.5, 2 mM DTT, 298 K, 600 MHz; stepwise additions of unlabelled K48- or K63-linked diUb up to 10 and 2.5 fold molar excess; chemical shift perturbation; conditions: both partners purified
T1 construct: ubiquitin, mutant UbD77; ubiquitin, mutant UbK48C; also called K48-linked diUb chains; K48-diUb; copies: 1 + 1

[2] = target: T2, K63-linked diUb (made from UbD77 and UbK63R) (UniProt P0CG47 1-76; P0CG47 1-76, UbD77 | UbK63R, K63-linked to the other Ub (isopeptide bond between K63 and G76) | K63-linked to the other Ub (isopeptide bond between K63 and G76)); assay: as above; conditions: both partners purified
T2 construct: ubiquitin, mutant UbD77; ubiquitin, mutant UbK63R; By the usual protocol G76 of UbK63R is joined to K63 of UbD77; also called K63-linked diUb chains; K63-diUb; source: recombinant Ub mutants joined with E1, Ubc13 and Uev1a by the same protocol, purified on a monoS cation exchange column; copies: 1 + 1

B1: Josephin domain of ataxin-3 (amino acids 1-182), C14A mutant, 15N labelled (domain or fragment, UniProt P54252 1-182, looked up)
chain: MESIFHEKQEGSLAAQHCLNNLLQGEYFSPVELSSIAHQLDEEERMRMAEGGVTSEDYRTFLQQPSGNMDDSGFFSIQVISNALKVWGLELILFNSPEYQRLRIDPINERSFICNYKEHWFTVRKLGKQWFNLNSLLTGPELISDTYLALFLAQLQQEGYSIFVVKGDLPDCEADQLLQMIR
modifications: 15N labelled
notes: ataxin-3, N-terminal catalytic Josephin domain, amino acids 1-182; catalytic cysteine mutated so that no cleavage could occur; The methods speak of titrations of 15N Josephin or of the C14A mutant; the results say that C14A was used; also called isolated Josephin domain; C14A Josephin mutant; source: E. coli BL21(DE3), purified as previously described [35]; grown in synthetic medium with 15NH4Cl
binding result [1]: binds
binding result [2]: binds

From article PMC2928749, “Understanding the Role of the Josephin Domain in the PolyUb Binding and Cleavage Properties of Ataxin-3” (PLoS ONE, 2010)
